Consider two molecules from patent publication US20030185792A1, “Morphogen analogs of bone morphogenic proteins” (Curis, Inc., priority 1996, published 2003).

One assay concerns the target T1, ECD of DAF-4 (Caenorhabditis elegans, UniProt P50488).
T1 construct: highly purified ECD of DAF-4 as type II receptor
T1 sequence (P50488 48-253 limits assumed): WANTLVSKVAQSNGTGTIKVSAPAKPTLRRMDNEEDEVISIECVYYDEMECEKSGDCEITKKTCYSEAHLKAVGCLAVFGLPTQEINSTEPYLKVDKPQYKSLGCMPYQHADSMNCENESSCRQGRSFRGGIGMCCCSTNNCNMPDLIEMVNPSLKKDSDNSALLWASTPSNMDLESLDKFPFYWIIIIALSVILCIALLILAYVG
The experiment in a line: Type II receptor-based rapid solid phase assay. The class given is binding. The settings on record: for inhibition of 125I-labeled OP-1 binding to the ECD of DAF-4: excess unlabeled competitor, FIG. 20. Here is the method:
iii. Type H Receptor-based rapid solid phase assay: OP-1 binding activity, and that of various synthetic peptides, may be determined by a rapid solid-phase assay using 125I-labeled OP-1 as ligand and highly purified ECD of DAF-4 as type II receptor. In a typical assay, ˜1 μg of ECD of DAF-4 receptor (R) is dissolved in 20 μl of 50 mM PBSA, pH 7.4 and immobilized on PVDF membranes (Immobilon-P) by using a slot-blot apparatus (VacuSlot-VS). A similarly immobilized polyclonal anti-OP-1 antibody (diluted Ab) has served as positive control, while bovine serum albumin (globulin free) and unrelated receptor ECD have served as negative controls in this assay. The receptor-containing membranes are incubated in 50 mM HEPES buffer, pH 7.4 containing 3% bovine serum albumin (BSA) for 14 h, in cold (4° C.), to block excess protein binding sites on the membrane. The blocking buffer is then replaced with 50 mM HEPES, pH 7.4 containing 0.5% BSA, 10 mM MgCl2 and 1 mM CaCl2, and the receptor-containing membranes are further incubated with ^125I-labeled OP-1 (˜400,000 cpm/ml) in the presence or absence of excess unlabeled OP-1 or test peptide for 18 h, with slow shaking at room temperature. Finally, the membranes are washed four times with 50 mM HEPES buffer, pH 7.4 containing 5 mM MgCl2 and 1 mM CaCl2, air dried and ^125I kept for autoradiography overnight.
Initial binding experiments were carried out to examine the role of the finger 2 region (Leu109-Arg129) of OP-1 in the interaction of OP-1 with the type II receptor. Incubation of DAF4 with radioiodinated OP-1 was done in the presence (a) and absence (b) of synthetic peptide (F2-3) corresponding to the indicated finger 2 region of OP-1. In parallel, immobilized receptor was incubated with radioiodinated OP-1 in the presence of unlabeled OP-1 which served as a positive control. […] These initial results thus identify that the finger 2 region (Leu109-Arg129) of OP-1 is likely a contact region in the interaction of OP-1 with the type II receptor.

The target of another assay is T2, DAF-4 ECD (Caenorhabditis elegans, UniProt P50488).
T2 construct: highly purified ECD of DAF-4 as type II receptor
T2 sequence (P50488 48-253 limits assumed): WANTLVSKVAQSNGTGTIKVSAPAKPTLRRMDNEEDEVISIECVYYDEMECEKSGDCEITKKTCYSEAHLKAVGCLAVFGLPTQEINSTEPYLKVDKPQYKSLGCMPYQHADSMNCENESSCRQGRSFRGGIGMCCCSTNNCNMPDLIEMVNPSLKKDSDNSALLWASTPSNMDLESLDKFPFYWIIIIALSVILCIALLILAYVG
The experiment in a line: Type II receptor-based ligand blot, DAF-4 ECD. It counts as binding. The following applies: FIG. 22. Here is the method:
(§1) iv. Type II receptor-based ligand-blot technique: A ligand blot method can be used to characterize OP-1 binding properties of highly purified DAF4 ECD and ROS cell receptor. Peptides are analyzed by this method to determine their ability to interact with type II receptor, based on their ability to inhibit ^125I-labeled OP-1 binding to the receptor. In a typical experiment, receptor-enriched ROS cell plasma membrane fraction or purified DAF-4 ECD is treated with SDS (final concentration 1.6%, w/v) in the presence of 17% glycerol on ice, as is known in the art, and subjected to SDS-PAGE under non-reducing conditions and without prior heating of the samples, according to the procedure of Laemmli. Receptor samples are electrophoressed at 35 mA and 4° C., in gradient (5-8% or 5-10%, w/v) acrylamide separating gels. Pre-stained markers of known MW, are used as standards. After SDS-PAGE, the resolved proteins from acrylamide gels are transblotted onto PVDF membranes (Immobilon-P transfer membranes) using an Pharmacia-LKB 2005 Transphor Unit, at constant current (0.2 A) and 4° C., for 16 h. Ligand blotting is carried out as follows. […]

The next assay has as its system ROS cell receptor. As to the kind of experiment: Type II receptor-based ligand blot, ROS cell receptor. It counts as binding, rat. The settings on record: FIG. 21. Here is the method:
as §1

Consider “F2-3: SEQ ID No. 19; 16 residues, finger 2 tip 11-residue loop with 5-residue C-terminal extension (CYFDDSSNVICKKYRS; listed as Homo sapiens)”, for which, in the assay with ECD of DAF-4 (FIG. 20 legend), the “binding to ECD of DAF-4” value was “binds to ECD of DAF-4”. Besides, in the assay with ECD of DAF-4, the “inhibition of 125I-labeled OP-1 binding to the ECD of DAF-4” value was 75%.

B1: OP-1: osteogenic protein-1, a tissue morphogenic protein of the TGF-β superfamily; mature human OP-1 is SEQ ID No. 4 (protein, listed as Homo sapiens)
chain: CKKHELYVSFRDLGWQDWIIAPEGYAAYYCEGECAFPLNSYMNATNHAIVQTLVHFINPETVPKPCCAPTQLNAISVLYFDDSSNVILKKYRNMVVRACGCH
For B1, in the assay with ECD of DAF-4, the “inhibition of 125I-labeled OP-1 binding to the ECD of DAF-4” value was found to be 78%. For the same molecule, in the assay with DAF-4 ECD, the “binding of 125I-labeled OP-1 to DAF-4 ECD” value is given as “OP-1 binding to two closely migrated receptor components”. Also, the “binding of 125I-labeled OP-1 to ROS cell receptor” value with ROS cell receptor is given as “specifically binds”.
